In US20080241166A1 (DOMANTIS, published 2008):

How the values were obtained:
mouse serum albumin = target: T1, mouse serum albumin (mouse, UniProt P07724 25-608); test: capture ELISA: dAb on protein A, biotinylated MSA, streptavidin HRP
T1 construct: Biotinylated (about 2 biotins per molecule) in the capture ELISA; unlabelled on the CM5 chip; also called MSA; biotinylated MSA

[1] = target: T2, EGFR expressed on A431 cells (UniProt P00533 25-1210, limits assumed); test: cell-based or functional assay
[2] = target: EGFR (as used for the KD column of Table 10) (UniProt P00533 25-645, limits assumed); test: method not described
[3] = target: T2, EGFR expressed on A431 cells; test: EGFR receptor binding assay: inhibition of biotinylated EGF binding to A431 cells; average
[4] = target: T2, EGFR expressed on A431 cells; test: EGFR receptor binding assay: inhibition of biotinylated EGF binding to A431 cells; highest value obtained
[5] = target: T2, EGFR expressed on A431 cells; test: EGFR receptor binding assay: inhibition of biotinylated EGF binding to A431 cells; lowest value obtained
[6] = target: T3, human TNFR1 (human p55 TNF receptor) (human, UniProt P19438 30-211, limits assumed); test: selection from dAb libraries
T3 construct: also called TNF receptor 1; TNFα receptor
T3 sequence: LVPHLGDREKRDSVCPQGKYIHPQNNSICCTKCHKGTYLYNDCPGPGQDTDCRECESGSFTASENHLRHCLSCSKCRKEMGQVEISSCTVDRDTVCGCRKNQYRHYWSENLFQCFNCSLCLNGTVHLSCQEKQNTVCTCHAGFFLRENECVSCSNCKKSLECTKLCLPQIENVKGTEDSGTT

T1 sequence (P07724 25-608 limits assumed): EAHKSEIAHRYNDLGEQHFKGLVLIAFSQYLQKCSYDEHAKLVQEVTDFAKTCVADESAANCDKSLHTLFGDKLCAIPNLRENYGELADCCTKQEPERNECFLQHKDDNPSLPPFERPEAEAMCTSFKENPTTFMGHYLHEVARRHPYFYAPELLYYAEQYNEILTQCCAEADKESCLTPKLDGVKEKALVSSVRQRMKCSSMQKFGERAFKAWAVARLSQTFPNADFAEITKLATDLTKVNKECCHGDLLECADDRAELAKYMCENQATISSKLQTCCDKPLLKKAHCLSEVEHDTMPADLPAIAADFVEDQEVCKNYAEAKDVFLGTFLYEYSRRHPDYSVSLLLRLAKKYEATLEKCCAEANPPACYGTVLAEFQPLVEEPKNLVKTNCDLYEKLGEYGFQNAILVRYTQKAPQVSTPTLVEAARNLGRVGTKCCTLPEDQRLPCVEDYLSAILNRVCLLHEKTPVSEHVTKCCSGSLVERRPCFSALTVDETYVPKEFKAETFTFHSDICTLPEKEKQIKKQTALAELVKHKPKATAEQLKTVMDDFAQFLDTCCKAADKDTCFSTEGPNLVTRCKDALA

B1: anti-serum albumin VH dAb, clone 36 (other)
VH: EVQLLESGGGLVQPGGSLRLSCAASGFTFWSYQMTWVRQAPGKGLEWVSSISSFGSSTLYADSVKGRFTISRDNSKNTLYLQMNSLRAEDTAVYYCAKGRDHNYSLFDYWGQGTLVTVSS
notes: ranges to be checked
binding result (mouse serum albumin): binds

B2: DOM16-39-109 (other)
chain: DIQMTQSPTSLSASVGDRVTITCRASQWIGNLLDWYQQKPGEAPKLLIYYASFLQSGVPSRFSGGGFGTDFTLTISSLQPEDFATYYCQQANPAPLTFGQGTKVEIKR
notes: anti-EGFR dAb
KINASE ASSAY IC50, average [1]: 8.69 nM | KINASE ASSAY IC50, highest value [1]: 11.1 nM | KINASE ASSAY IC50, lowest value [1]: 6.82 nM | Kd [2]: 1.01 nM | IC50 [3]: 1.05 nM | IC50 [4]: 1.47 nM | IC50 [5]: 0.746 nM

B3: anti-serum albumin VH dAb, clones 8, 10 (other)
VH: EVQLLESGGGLVQPGGSLRLSCAASGFTFWVYQMDWVRQAPGKGLEWVSSISAFGAKTLYADSVKGRFTISRDNSKNTLYLQMNSLRAEDTAVYYCAKLSGKFDYWGQGTLVTVSS
notes: dAb
binding result (mouse serum albumin): binds

B4: TAR2h-5 VH dAb (other)
VH: EVQLLESGGGLVQPGGSLRLSCAASGFTFDLYNMFWVRQAPGKGLEWVSFISQTGRLTWYADSVKGRFTISRDNSKNTLYLQMNSLRAEDTAVYYCAKTLEDFDYWGQGTLVTVSS
notes: TAR2-5 and TAR2h-5 are used for the same dAb; also called TAR2-5
binding result [6]: binds
